Laboratory results as given in patent publication US20260176378A1 (DYAX, published 2026).

How the values were obtained:
[1] = biological target: T1, pKal catalytic domain Mutant 2 (human, UniProt P03952 391-638); experiment: equilibrium Ki,app
T1 construct: Pichia pastoris; construct limits derived as for the wild type domain; not shown: His tag fusion
Protocol: Enzyme and inhibitor were pre-incubated for 2 hours at 30° C. in a 96-well plate by adding 10 μL of a 10× enzyme solution and 10 μL of 10× inhibitor solutions to 70 μL of reaction buffer. Reactions were initiated by the addition of 10 μL of a 10× concentrated stock of substrate, and were monitored at 30° C. in a fluorescence plate reader with the excitation and emission wavelengths set at 360 nm/460 nm, respectively. Kinetic data were acquired by the increase in fluorescence, and initial rates for each condition were plotted against the total inhibitor concentration. The data was fit to the following equation for tight binding inhibitors: […]

human plasma kallikrein = biological target: T2, human plasma kallikrein (human, UniProt P03952 20-390; P03952 391-638); experiment: ELISA, biotinylated pKal signal over streptavidin background
T2 construct: two disulfide-linked chains; NP_000883.2; also called pKal; hpKal
T2 sequence (P03952 20-390 limits assumed, chain 1 of 2): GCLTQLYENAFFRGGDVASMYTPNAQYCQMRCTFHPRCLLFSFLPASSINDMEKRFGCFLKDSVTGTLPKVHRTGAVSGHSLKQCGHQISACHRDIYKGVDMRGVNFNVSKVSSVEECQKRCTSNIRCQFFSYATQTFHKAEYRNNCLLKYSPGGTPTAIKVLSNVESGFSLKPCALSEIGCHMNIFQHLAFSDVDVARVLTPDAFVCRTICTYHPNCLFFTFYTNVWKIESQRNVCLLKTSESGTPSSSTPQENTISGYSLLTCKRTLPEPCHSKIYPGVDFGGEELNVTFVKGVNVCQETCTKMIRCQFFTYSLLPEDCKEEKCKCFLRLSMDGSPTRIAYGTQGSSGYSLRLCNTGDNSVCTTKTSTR
T2 sequence (P03952 391-638 limits assumed, chain 2 of 2): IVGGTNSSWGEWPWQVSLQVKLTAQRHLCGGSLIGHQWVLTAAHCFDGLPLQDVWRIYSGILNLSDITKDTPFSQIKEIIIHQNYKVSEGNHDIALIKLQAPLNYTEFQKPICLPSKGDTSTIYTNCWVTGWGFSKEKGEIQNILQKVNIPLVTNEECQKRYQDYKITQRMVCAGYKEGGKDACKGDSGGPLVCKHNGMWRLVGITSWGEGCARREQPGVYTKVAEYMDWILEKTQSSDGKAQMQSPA

T1 sequence (P03952 other isoform, or with tags, fused parts or gaps mutant): as the sequence (P03952 391-638 limits assumed, chain 2 of 2) above, with R161A, Q163A, Y165A, T168A, R170A counted along it

B1: M6-D09 (Fab, V domains shown)
VH: EVQLLESGGGLVQPGGSLRLSCAASGFTFSFYYMVWVRQAPGKGLEWVSVIYPSGGITVYADSVKGRFTISRDNSKNTLYLQMNSLRAEDTAVYYCARDKWAVMPPYYYYAMDVWGQGTTVTVSS
VL: DIQMTQSPSSLSASVGDRVTITCRASQSIRNYLNWYQQKPGKAPNLLIYAASTLQSGVPARFSGSGSGTDFTLTISSLQPEDFATYYCQQLSGYPHTFGQGTKLEIK
notes: also called M06-D09; 559A-M06-D09
[1]
  fold change of Ki,app against the wild type catalytic domain: ~5 fold
Human plasma kallikrein
  ELISA (T/B): 39.9
